Article PMC9165289, “Theranostic PSMA ligands with optimized backbones for intraoperative multimodal imaging and photodynamic therapy of prostate cancer” (European Journal of Nuclear Medicine and Molecular Imaging, 2022)
Where two headings read alike, the source gives them in different places.

How the values were obtained:
PSMA = target: T1, PSMA (Homo sapiens, UniProt Q04609); assay: competitive binding assay using LS174T-PSMA cells
T1 construct: expressed in transfected cells; host or cells: LS174T colon carcinoma cells (LS174T-PSMA)
T1 sequence (Q04609 whole entry): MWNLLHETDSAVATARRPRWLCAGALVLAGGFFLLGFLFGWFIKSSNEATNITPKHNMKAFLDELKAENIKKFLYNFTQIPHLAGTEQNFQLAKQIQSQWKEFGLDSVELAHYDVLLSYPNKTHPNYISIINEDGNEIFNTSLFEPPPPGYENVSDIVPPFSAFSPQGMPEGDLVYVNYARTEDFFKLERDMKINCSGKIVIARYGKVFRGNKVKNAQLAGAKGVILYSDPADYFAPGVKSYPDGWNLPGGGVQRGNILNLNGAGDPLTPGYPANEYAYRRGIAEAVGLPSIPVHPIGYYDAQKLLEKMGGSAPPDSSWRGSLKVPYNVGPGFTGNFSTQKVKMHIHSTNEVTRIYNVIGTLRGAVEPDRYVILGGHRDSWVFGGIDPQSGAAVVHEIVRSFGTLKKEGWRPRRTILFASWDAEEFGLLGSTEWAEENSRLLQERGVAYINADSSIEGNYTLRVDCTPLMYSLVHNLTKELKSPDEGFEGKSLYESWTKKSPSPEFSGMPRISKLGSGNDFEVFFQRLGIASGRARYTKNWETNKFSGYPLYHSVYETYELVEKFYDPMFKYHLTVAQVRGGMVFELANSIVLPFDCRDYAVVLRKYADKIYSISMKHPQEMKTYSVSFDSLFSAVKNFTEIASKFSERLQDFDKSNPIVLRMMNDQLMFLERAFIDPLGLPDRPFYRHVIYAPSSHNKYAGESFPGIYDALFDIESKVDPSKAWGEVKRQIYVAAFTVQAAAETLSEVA
Source text: Fig. 3 In vitro characterization of [^111In]In-DOTA(GA)-IRDye700DX-PSMA ligands varying in their backbone composition. a Labeling efficiency of [^111In]In-DOTA-PSMA-N01, -N02, -N03, [^111In]In-DOTAGA-PSMA-N064 and -N064inc at a specific activity of either 10 MBq/µg or 30 MBq/µg (n = 2). IC50 values of ligands as determined in competitive binding assays using LS174T-PSMA cells. b Binding and internalization of [^111In]In-DOTA-PSMA-N01, -N02, -N03, [^111In]In-DOTAGA-PSMA-N064 and -N064inc in LS174T PSMA-positive cells. Membrane binding and internalization are corrected for non-specific binding and accumulation, as determined by co-incubation with an excess of 2-PMPA (50 µg). [^111In]In-DOTA-PSMA-617 was added as a positive control. c PSMA-targeted PDT efficacy of ligands in vitro. Cell viability of LS174T-PSMA (PSMA +) and LS174T wildtype (PSMA-) cells following incubation with 30 nM of PSMA-N01, -N02, -N03, -N064, and -N064inc, after either a 100 J/cm^2 (450 mW/cm^2) radiant exposure or no light exposure (dark).

LS174T-PSMA cells = assay: in vitro binding and internalization assay; format: cell-based, human; conditions: 37 °C, 2 h
Protocol: The binding and internalization characteristics of the ligands were determined using LS174T-PSMA cells. Cells were cultured to confluency in 6-well plates followed by incubation with 50,000 counts per minute of ^111In-labeled ligand (0.1–0.25 pmol/well) in 1-ml RPMI + 0.5% BSA (37 °C, 2 h). Non-specific binding was determined by coincubation with 2(phosphonomethyl)-pentane-1,5-dioic acid (2-PMPA, 21.57 µM). PSMA-specific binding was defined as total binding minus the non-specific binding. To retrieve the membrane-bound fraction, cells were washed twice with PBS and incubated for 10 min at 0 °C with acid buffer (154-mM NaCl, 0.1 M acetic acid, pH 2.6). After incubation, the membrane-bound fraction was collected. Then, cells were washed and lysed with 0.1 M NaOH, and the cell lysate (intracellular activity) was collected. Intracellular and membrane-bound activity fractions were measured in a gamma-counter (2480 WIZARD^2 Automatic Gamma Counter, PerkinElmer).

[1] = ex vivo biodistribution of 111In-labeled ligands; design: species or system BALB/c nude mice; conditions: male, BALB/c nude, mouse, iv, 0.3 nmol, total radioactivity, 2 h p.i.; for tissue uptake at 2 h: 10 MBq/mouse, i.v.
Protocol: (§1) All animal experiments were approved by the institutional Animal Welfare Committee of the Radboud University Medical Center and were conducted in accordance to the guidelines of the Revised Dutch Act on Animal Experimentation. Animal experiments were performed in 8–10 weeks old male BALB/c nude mice (Janvier). The mice were housed in individually ventilated cages (Blue line IVC, 3–5 mice per cage), under standard non-sterile conditions with cage enrichment present. There was free access to chlorophyll-free animal chow (Sniff Voer) and water. Mice were subcutaneously inoculated with 3.0 × 10^6 LS174T-PSMA cells in the right flank and 1.5 × 10^6 LS174T WT cells in the left flank (diluted in 200-µl RPMI 1640 medium). When xenografts were approximately 0.5 cm^3 (10–14 days after injection), mice were block-randomized into groups based on tumor size. The researchers were not blinded for the experimental groups.
(§2) Mice were intravenously injected with 0.3 nmol PSMA ligand, labeled with 10 MBq ^111In (molar activity 33.3 MBq/nmol) in PBS + 0.5% (w/v) BSA. For the ex vivo biodistribution, five groups (one group for each ligand) of four mice were included. Two hours p.i., all mice were euthanized by CO2/O2-asphyxiation. For two mice of each group (2 mice/ligand), background-subtracted fluorescence images were acquired with the IVIS imaging system (Xenogen VivoVision IVIS Lumina II, PerkinElmer), with a 640-nm excitation filter and a Cy5.5 emission filter and an acquisition time of 10 s. Next, µSPECT/CT imaging was performed in the same two mice per group, with a 1.0-mm diameter pinhole mouse collimator tube (U-SPECT II, MILabs). Mice were scanned for 30 min followed by a CT scan for anatomical reference (spatial resolution 160 μm, 615 μA, 65 kV). MILabs reconstruction software was used to reconstruct the µSPECT/CT scans, via an ordered-subset expectation maximization algorithm, energy windows 154–188 keV and 220–270 keV, 3 iterations, 16 subsets, and voxel size of 0.75 mm. SPECT/CT maximum intensity projections (MIPs) were created using the Inveon Research Workplace software (Siemens Preclinical Solutions, version 4.1). NIR fluorescence images were analyzed using Living Image software (PerkinElmer, version 4.2). After imaging, relevant tissues were dissected, weighed, and measured for radioactivity in a gamma-counter (2480 WIZARD^2 Automatic Gamma Counter, PerkinElmer). In addition, a blocking experiment with PSMA-N064 and PSMA-617 was performed. Full experimental procedures and results can be found in the supplementary data (Page 5, Supplementary Fig. 3).

[2] = system: LS174T-PSMA and LS174T wildtype xenografts; assay: ex vivo biodistribution of 111In-labeled ligands; design: species or system BALB/c nude mice; conditions: 0.3 nmol, 2 h p.i.
Protocol: as §1, §2

[3] = LS174T wildtype tumor, n=4, read-out: Biodistribution Tumor- LS174T
[4] = LS174T-PSMA tumor, n=4, read-out: Biodistribution Tumor+ LS174T-PSMA
[5] = adrenals, n=4, read-out: Biodistribution Adrenals
[6] = blood, n=4, read-out: Biodistribution Blood
[7] = bone marrow, n=4, read-out: Biodistribution Bone marrow
[8] = bone, n=4, read-out: Biodistribution Bone
[9] = duodenum, n=4, read-out: Biodistribution Duodenum
[10] = heart, n=4, read-out: Biodistribution Heart
[11] = kidney, n=4, read-out: Biodistribution Kidney
[12] = liver, n=4, read-out: Biodistribution Liver
[13] = lung, n=4, read-out: Biodistribution Lung
[14] = muscle, n=4, read-out: Biodistribution Muscle
[15] = pancreas, n=4, read-out: Biodistribution Pancreas
[16] = prostate, n=4, read-out: Biodistribution Prostate
[17] = salivary glands, n=4, read-out: Biodistribution Salivary glands
[18] = spleen, n=4, read-out: Biodistribution Spleen
[19] = stomach, n=4, read-out: Biodistribution Stomach
[20] = tumor (LS174T-PSMA xenograft) / blood, read-out: Tumor/Blood ratio
[21] = tumor (LS174T-PSMA xenograft) / kidney, read-out: Tumor/Kidney ratio
[22] = tumor (LS174T-PSMA xenograft) / liver, read-out: Tumor/Liver ratio
[23] = tumor (LS174T-PSMA xenograft) / spleen, read-out: Tumor/Spleen ratio

SMILES | tissue uptake at 2 h [1, 3] [%ID/g] | tissue uptake at 2 h [1, 4] [%ID/g] | tissue uptake at 2 h [1, 5] [%ID/g] | tissue uptake at 2 h [1, 6] [%ID/g] | tissue uptake at 2 h [1, 7] [%ID/g] | tissue uptake at 2 h [1, 8] [%ID/g] | tissue uptake at 2 h [1, 9] [%ID/g] | tissue uptake at 2 h [1, 10] [%ID/g] | tissue uptake at 2 h [1, 11] [%ID/g] | tissue uptake at 2 h [1, 12] [%ID/g] | tissue uptake at 2 h [1, 13] [%ID/g] | tissue uptake at 2 h [1, 14] [%ID/g] | tissue uptake at 2 h [1, 15] [%ID/g] | tissue uptake at 2 h [1, 16] [%ID/g] | tissue uptake at 2 h [1, 17] [%ID/g] | tissue uptake at 2 h [1, 18] [%ID/g] | tissue uptake at 2 h [1, 19] [%ID/g] | tissue to tissue ratio at 2 h [1, 20] | tissue to tissue ratio at 2 h [1, 21] | tissue to tissue ratio at 2 h [1, 22] | other results
C[Si](C)(CCC[N+](CCCS(=O)(=O)[O-])(CCCS(=O)(=O)O)CCCS(=O)(=O)O)O[Si]1(O[Si](C)(C)CCC[N+](CCCS(=O)(=O)[O-])(CCCS(=O)(=O)O)CCCS(=O)(=O)O)n2c3c4ccccc4c2N=C2N=C(N=c4c5c(OCCCOC(=O)NCCCCCC(=O)NCCCC[C@H](NC(=O)CN6CCN(CC(=O)O)CCN(CC(=O)O)CCN(CC(=O)O)CC6)C(=O)NCCCC[C@H](NC(=O)[C@H](CCC(=O)O)NC(=O)c6ccccc6)C(=O)NC[C@H]6CC[C@H](C(=O)N[C@@H](Cc7ccc8ccccc8c7)C(=O)NCCCC[C@H](NC(=O)N[C@@H](CCC(=O)O)C(=O)O)C(=O)O)CC6)cccc5c(n41)=NC1=NC(=N3)c3ccccc31)c1ccccc12 [PSMA-N03] | 1.1 ± 0.2 | 20 ± 2 | 2.1 ± 0.8 | 0.7 ± 0.1 | 0.2 ± 0.1 | 0.5 ± 0.1 | 0.4 ± 0.03 | 0.4 ± 0.04 | 142 ± 11 | 1.3 ± 0.1 | 1.8 ± 0.4 | 0.2 ± 0.1 | 0.3 ± 0.02 | 0.6 ± 0.2 | 0.6 ± 0.1 | 1.5 ± 0.4 | 0.6 ± 0.1 | 27 ± 2.9 | 0.2 ± 0.02 | 15.1 ± 1.7 | IC50 (PSMA): 41.8 nM; IC50 (PSMA; listed as -N03): < 50 nM; internalization percentage (percentage of cell-associated ligand that was internalized) (LS174T-PSMA cells): 73–90%; tissue to tissue ratio at 2 h [1, 23]: 14.3 ± 4; Biodistribution Kidney ([2]; 10 MBq/mouse, i.v., n=4): 142.4 ± 10.6 %ID/g; Biodistribution Tumor+ LS174T-PSMA ([2]; 10 MBq/mouse, i.v., n=4): 19.8 ± 1.9 %ID/g; Biodistribution Tumor+ LS174T-PSMA ([2]; 10 MBq/mouse, i.v., n=4, listed as N03): ≥ 20 %ID/g; Tumor/Negative tumor ratio [2]: 19.9 ± 6.3; Tumor/Prostate ratio [2]: 35.1 ± 10.7; Tumor/Salivary gland ratio [2]: 35.0 ± 5.0
C[Si](C)(CCC[N+](CCCS(=O)(=O)[O-])(CCCS(=O)(=O)O)CCCS(=O)(=O)O)O[Si]1(O[Si](C)(C)CCC[N+](CCCS(=O)(=O)[O-])(CCCS(=O)(=O)O)CCCS(=O)(=O)O)n2c3c4ccccc4c2N=C2N=C(N=c4c5c(OCCCOC(=O)NCCCCCC(=O)NCCCC[C@H](NC(=O)CCC(C(=O)O)N6CCN(CC(=O)O)CCN(CC(=O)O)CCN(CC(=O)O)CC6)C(=O)N[C@@H](Cc6ccccc6)C(=O)N[C@@H](CCC(=O)O)C(=O)N[C@@H](CCC(=O)O)C(=O)NCCCCCC(=O)NCCCC[C@H](NC(=O)N[C@@H](CCC(=O)O)C(=O)O)C(=O)O)cccc5c(n41)=NC1=NC(=N3)c3ccccc31)c1ccccc12 (stereo partly drawn) [PSMA-N064] | 0.7 ± 0.3 | 14 ± 2 | 1.6 ± 0.4 | 0.3 ± 0.1 | 0.2 ± 0.1 | 0.7 ± 0.1 | 0.3 ± 0.1 | 0.4 ± 0.1 | 74 ± 17 | 0.9 ± 0.2 | 0.5 ± 0.1 | 0.1 ± 0.04 | 0.3 ± 0.05 | 0.6 ± 0.1 | 0.4 ± 0.04 | 1.4 ± 0.3 | 0.4 ± 0.1 | 54 ± 14.7 | 0.2 ± 0.03 | 15.6 ± 3.6 | tissue to tissue ratio at 2 h [1, 23]: 9.6 ± 0.4; Tumor/Negative tumor ratio [2]: 23.8 ± 9.7; Tumor/Prostate ratio [2]: 21.9 ± 1.7; Tumor/Salivary gland ratio [2]: 33.8 ± 6.6
